According to PMC3042951 (The journal of physical chemistry. B, 2010):

Biological target: the molecule itself
Test: cross-linking

B1: native human LysRS (70–584) T285C (enzyme)
chain: not shown
Q: For B1, which “stoichiometry N” value is on record?
A: Its value is 2.
